Results from US20220315554A1, “COMPOUNDS COMPRISING A […] LIGAND AND USE THEREOF” (priority 2019, published 2022).
Bridge positions count the residues as written; N and C are the ends. * marks the point of attachment. tMeBn(DOTA-AET) = Cys-Cys bridge (thioethers) carrying DOTA-AET; tMeBn(DOTA-PP) = Cys-Cys bridge (thioethers) carrying DOTA-PP; Hexanoyl = CCCCCC(=O)*

How the values were obtained:
Assay in all cases: radioligand displacement, 10 uM compound
Conditions in all cases: remark: other sources report otherwise
[1] = target: T1, delta (DOP) (h) (human), P41143
T1 chain: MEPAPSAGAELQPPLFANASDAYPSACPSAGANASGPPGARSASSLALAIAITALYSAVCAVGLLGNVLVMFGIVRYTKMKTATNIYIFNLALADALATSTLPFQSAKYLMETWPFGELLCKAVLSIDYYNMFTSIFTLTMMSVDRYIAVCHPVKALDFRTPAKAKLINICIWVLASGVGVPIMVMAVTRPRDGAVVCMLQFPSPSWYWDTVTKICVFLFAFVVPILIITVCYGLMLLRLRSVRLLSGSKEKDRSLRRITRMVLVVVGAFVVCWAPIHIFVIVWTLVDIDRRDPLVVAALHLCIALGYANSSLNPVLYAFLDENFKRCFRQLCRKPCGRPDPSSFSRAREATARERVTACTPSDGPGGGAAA

[2] = target: 5-HT2A (h) (human (printed (h))), P28223
5-HT2A (h) (human (printed (h))), P28223, sequence (P28223 whole entry): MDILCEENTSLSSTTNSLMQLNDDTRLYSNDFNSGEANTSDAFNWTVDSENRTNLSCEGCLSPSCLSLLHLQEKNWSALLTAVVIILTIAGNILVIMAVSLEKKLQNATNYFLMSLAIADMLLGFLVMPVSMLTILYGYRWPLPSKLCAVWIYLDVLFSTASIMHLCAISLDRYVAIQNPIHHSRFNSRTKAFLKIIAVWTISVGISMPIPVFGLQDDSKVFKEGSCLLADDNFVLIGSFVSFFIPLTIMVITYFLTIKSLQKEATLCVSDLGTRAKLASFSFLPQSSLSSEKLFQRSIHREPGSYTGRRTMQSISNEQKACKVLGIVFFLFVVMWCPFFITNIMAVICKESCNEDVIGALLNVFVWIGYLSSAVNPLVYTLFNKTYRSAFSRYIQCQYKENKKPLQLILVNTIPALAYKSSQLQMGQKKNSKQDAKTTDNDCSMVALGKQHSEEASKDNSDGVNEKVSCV

[3] = target: T2, dopamine transporter (h) (human (printed (h))), Q01959
T2 chain: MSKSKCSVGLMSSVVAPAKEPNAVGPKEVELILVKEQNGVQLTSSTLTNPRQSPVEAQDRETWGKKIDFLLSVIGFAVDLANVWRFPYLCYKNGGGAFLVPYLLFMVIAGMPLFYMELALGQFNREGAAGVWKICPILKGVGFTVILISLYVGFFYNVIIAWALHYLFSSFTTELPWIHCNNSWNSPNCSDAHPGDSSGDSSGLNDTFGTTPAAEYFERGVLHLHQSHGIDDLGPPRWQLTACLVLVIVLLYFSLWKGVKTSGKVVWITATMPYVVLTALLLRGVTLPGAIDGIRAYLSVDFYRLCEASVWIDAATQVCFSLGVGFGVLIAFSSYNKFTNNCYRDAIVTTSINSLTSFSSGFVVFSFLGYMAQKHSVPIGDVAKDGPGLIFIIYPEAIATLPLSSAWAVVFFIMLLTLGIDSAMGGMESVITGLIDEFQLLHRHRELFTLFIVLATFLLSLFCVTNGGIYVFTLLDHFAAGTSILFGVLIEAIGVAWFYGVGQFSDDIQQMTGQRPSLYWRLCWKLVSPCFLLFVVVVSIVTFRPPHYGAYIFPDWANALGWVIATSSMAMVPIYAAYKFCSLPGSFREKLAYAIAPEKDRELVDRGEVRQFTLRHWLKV

[4] = target: H1 (h) (human (printed (h))), P35367
H1 (h) (human (printed (h))), P35367, sequence (P35367 whole entry): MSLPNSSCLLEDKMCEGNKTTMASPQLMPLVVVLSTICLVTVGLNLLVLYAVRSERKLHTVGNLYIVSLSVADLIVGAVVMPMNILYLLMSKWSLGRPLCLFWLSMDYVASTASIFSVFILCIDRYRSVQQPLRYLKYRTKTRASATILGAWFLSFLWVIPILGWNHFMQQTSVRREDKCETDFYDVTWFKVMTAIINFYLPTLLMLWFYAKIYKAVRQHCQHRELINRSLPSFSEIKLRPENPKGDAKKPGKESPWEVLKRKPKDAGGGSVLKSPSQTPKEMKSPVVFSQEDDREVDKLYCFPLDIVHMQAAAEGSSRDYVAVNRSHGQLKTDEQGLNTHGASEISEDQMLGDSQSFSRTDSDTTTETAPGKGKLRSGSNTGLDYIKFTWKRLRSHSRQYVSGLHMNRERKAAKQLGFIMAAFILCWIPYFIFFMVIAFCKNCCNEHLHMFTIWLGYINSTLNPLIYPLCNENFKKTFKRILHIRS

[5] = target: beta 2 (h) (human (printed (h))), P07550
[6] = target: T3, alpha 1A (h) (human (printed (h))), P35348
T3 chain: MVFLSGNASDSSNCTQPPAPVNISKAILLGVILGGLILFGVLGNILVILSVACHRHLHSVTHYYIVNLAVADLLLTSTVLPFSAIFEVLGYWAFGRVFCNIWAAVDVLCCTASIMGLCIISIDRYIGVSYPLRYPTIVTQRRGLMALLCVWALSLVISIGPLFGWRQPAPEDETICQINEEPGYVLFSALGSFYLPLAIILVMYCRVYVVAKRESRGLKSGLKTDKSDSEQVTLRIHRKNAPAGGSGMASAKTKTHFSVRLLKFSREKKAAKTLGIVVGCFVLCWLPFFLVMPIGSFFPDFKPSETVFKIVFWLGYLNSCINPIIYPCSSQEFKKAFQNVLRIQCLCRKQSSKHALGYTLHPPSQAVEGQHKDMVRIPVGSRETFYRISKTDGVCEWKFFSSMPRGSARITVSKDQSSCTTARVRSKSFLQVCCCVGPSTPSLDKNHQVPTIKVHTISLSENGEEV

[7] = target: CB2 (h) (human (printed (h))), P34972
CB2 (h) (human (printed (h))), P34972, sequence (P34972 whole entry): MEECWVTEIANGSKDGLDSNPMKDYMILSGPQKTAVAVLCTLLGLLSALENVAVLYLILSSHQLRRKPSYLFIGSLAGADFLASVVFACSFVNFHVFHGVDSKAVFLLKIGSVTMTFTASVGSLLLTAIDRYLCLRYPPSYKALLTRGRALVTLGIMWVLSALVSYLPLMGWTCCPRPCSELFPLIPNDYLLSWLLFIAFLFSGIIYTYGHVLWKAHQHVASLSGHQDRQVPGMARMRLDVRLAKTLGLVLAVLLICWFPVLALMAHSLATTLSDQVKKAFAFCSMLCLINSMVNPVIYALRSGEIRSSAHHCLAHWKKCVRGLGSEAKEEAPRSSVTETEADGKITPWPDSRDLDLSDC

## Hexanoyl-CPPTQFC-OH (linker 1-7 via tMeBn(DOTA-AET)) [Hex-[Cys(tMeBn(DOTA-AET))-Pro-Pro-Thr-Gln-Phe-Cys]-OH (3BP-3554)]
[1]
  % Inhibition of Specific Binding: 1%
[2]
  % Inhibition of Specific Binding: 4%
[3]
  % Inhibition of Specific Binding: 7%
[4]
  % Inhibition of Specific Binding: 4%
[5]
  % Inhibition of Specific Binding: 8%
[6]
  % Inhibition of Specific Binding: -12%
[7]
  % Inhibition of Specific Binding: -5%

## Hexanoyl-CPPTQFCD-NH2 (linker 1-7 via tMeBn(DOTA-PP)) [Hex-[Cys(tMeBn(DOTA-PP))-Pro-Pro-Thr-Gln-Phe-Cys]-Asp-NH2 (3BP-3407)]
[1]
  % Inhibition of Specific Binding: 0%
[2]
  % Inhibition of Specific Binding: -2%
[3]
  % Inhibition of Specific Binding: 12%
[4]
  % Inhibition of Specific Binding: 11%
[5]
  % Inhibition of Specific Binding: 4%
[6]
  % Inhibition of Specific Binding: 2%
[7]
  % Inhibition of Specific Binding: 2%
